Consider three molecules from patent publication US10966923.

The target of assay [1] is Abraxane (albumin-bound paclitaxel) (UniProt P02768). Put plainly: flow cytometry of particles stained with goat anti-mouse IgG and PE; ABX alone as comparison. On the technique in general: Flow cytometry measures light scatter and fluorescence of single cells or particles in a stream.
Assay [2] addresses AB160 (nanoparticle of albumin-bound paclitaxel and bevacizumab, ratio about 10:4, average particle size 160 nm) (UniProt P02768). Put plainly: flow cytometry of particles stained with goat anti-mouse IgG and PE.
For the next assay, the target named is VEGF (UniProt P15692). Put plainly: VEGF incubated with particles, particulate spun out, free VEGF in the supernatant measured by ELISA. (In general: An ELISA detects its analyte on a solid surface through an enzyme-linked reagent.)
For assay [3], the target named is T1, Abraxane (albumin-bound paclitaxel) (UniProt P02768 25-609).
T1 construct: also called ABX; Paclitaxel Albumin-stabilized Nanoparticle Formulation
The description is as above.
Procedure: The VEGF was incubated with the nanoparticles for 2 hours at room temperature. The suspension was spun at 6000 rpm for 15 minutes, supernatants were collected and free VEGF was measured by ELISA. Briefly, ELISA plates were coated with capture antibody overnight at 4° C. Plates were washed, blocked and standards and samples were added. After washing, detection antibody was added and plates were developed with substrate (R and D Systems, Minneapolis, Minn.). […] The concentration of unbound VEGF was determined with a standard curve from 0 to 2000 pg/ml.

As for goat anti-mouse IgG (antibody), the % positive is 6.7% in assay [1] and 41.2% in assay [2]. For “AB160 (nanoparticle of albumin-bound paclitaxel and bevacizumab, ratio about 10:4, average particle size 160 nm) (from UniProt P02768 25-609)”, in the assay with VEGF, the % VEGF unbound was below 10%.

B1: VEGF (ligand, UniProt P15692-4 27-191, looked up)
chain: APMAEGGGQNHHEVVKFMDVYQRSYCHPIETLVDIFQEYPDEIEYIFKPSCVPLMRCGGCCNDEGLECVPTEESNITMQIMRIKPHQGQHIGEMSFLQHNKCECRPKKDRARQENPCGPCSERRKHLFVQDPQTCKCSCKNTDSRCKARQLELNERTCRCDKPRR
notes: Soluble VEGF
For the molecule B1, the binding result in assay [3] is given as “no binding (tested: 2000 pg/ml VEGF)”.
